From paper PMC8254828

Molecular target: 3XHA-ankyrin-G F1609R (UniProt G5E8K5)
Chain of UniProt G5E8K5 (G5E8K5 whole entry F1609R): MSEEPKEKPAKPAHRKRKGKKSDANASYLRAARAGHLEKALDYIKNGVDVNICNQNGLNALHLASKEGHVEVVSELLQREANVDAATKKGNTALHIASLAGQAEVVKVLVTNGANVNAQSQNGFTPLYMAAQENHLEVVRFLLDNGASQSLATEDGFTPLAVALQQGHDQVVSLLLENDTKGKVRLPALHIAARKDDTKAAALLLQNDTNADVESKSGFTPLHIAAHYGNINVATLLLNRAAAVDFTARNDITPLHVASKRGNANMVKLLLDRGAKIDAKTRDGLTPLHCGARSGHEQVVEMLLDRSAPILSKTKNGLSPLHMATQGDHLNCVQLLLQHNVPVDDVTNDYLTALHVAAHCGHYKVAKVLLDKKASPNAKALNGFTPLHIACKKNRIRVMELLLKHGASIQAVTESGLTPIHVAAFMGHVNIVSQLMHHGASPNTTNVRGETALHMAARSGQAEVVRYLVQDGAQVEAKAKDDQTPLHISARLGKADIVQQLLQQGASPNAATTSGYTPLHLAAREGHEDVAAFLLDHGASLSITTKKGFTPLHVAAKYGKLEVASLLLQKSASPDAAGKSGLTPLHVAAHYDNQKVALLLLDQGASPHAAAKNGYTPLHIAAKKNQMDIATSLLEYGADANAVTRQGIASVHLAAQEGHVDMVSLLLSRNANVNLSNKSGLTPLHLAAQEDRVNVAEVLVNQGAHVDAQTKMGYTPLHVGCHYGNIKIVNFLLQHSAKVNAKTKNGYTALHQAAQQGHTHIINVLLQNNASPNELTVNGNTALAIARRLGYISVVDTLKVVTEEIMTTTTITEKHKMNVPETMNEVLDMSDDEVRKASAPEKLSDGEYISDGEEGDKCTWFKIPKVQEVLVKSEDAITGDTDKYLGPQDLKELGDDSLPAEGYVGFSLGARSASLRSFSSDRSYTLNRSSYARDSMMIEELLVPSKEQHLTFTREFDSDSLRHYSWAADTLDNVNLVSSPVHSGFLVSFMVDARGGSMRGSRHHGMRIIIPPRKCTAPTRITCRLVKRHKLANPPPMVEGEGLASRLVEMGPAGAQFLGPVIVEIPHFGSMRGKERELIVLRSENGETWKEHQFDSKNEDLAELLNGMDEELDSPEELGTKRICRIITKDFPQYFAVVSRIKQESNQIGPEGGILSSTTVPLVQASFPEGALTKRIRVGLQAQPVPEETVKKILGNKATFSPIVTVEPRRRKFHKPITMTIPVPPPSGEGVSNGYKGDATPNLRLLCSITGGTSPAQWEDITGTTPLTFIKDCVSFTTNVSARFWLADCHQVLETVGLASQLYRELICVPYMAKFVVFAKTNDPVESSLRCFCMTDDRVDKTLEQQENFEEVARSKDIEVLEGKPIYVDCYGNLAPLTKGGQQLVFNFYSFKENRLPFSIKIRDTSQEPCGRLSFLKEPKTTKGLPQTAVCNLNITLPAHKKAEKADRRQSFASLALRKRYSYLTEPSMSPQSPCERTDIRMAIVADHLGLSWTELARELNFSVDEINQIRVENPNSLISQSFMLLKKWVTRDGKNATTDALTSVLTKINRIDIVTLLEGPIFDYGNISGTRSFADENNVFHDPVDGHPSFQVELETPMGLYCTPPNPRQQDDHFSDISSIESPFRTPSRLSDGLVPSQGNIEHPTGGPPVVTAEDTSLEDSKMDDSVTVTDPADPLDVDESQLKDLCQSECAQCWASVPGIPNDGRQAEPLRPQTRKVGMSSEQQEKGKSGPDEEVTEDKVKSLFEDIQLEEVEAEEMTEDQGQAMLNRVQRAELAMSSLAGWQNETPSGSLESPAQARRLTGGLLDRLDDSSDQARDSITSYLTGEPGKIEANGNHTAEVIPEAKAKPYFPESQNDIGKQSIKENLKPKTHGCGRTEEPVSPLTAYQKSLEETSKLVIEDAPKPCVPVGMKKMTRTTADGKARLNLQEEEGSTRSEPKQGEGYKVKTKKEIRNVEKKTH

With “Homer1b/c, endogenous (from UniProt Q9Z2Y3 1-366) (natural protein)” the FRAP in dendritic spines of primary cortical neurons: mobile fraction of GFP-ankyrin-G^F1609R against GFP-ankyrin-G^WT, 200 s after photobleaching (GFP-tagged forms of the constructs) was 22.4%.
